Our source for the Kd values is PMC6650547 (mBio, 2019).

The target of this assay is SUDV VP35:[change] peptide (residues 1 to 34) (Sudan virus (SUDV), strain Gulu, UniProt Q5XX07 1-34). Put plainly: BLI. To be noted: both partners purified.

B1: His-SUDV-NP(34-367) (domain or fragment)
chain: GIVRQRVIPVYVVNDLEGICQHIIQAFEAGVDFQDNADSFLLLLCLHHAYQGDHRLFLKSDAVQYLEGHGFRFEVREKENVHRLDELLPNVTGGKNLRRTLAAMPEEETTEANAGQFLSFASLFLPKLVVGEKACLEKVQRQIQVHAEQGLIQYPTSWQSVGHMMVIFRLMRTNFLIKFLLIHQGMHMVAGHDANDTVISNSVAQARFSGLLIVKTVLDHILQKTDLGVRLHPLARTAKVKNEVSSFKAALGSLAKHGEYAPFARLLNLSGVNNLEHGLYPQLSAIALGVATAHGSTLAGVNVGEQYQQLREAATEAEKQLQQYAETRELDNLG
Consider B1, for which the Kd is roughly 266 nM.

What is called Kd is the constant that tells how readily two partners part at equilibrium. High values mean weaker binding, low ones tighter binding.
